Data on one molecule can be found in PMC8514580, “Insight into the interaction between the RNA helicase CGH-1 and EDC-3 and its implications” (Scientific Reports, 2021).

Numbering of substitutions follows the chain as printed.

Assay in all cases: ITC; ligand (peptide or CAR-1 fragment, 0.5 mM) injected into CGH-1_(248-420) or mutant (0.05 mM) in the cell; 20 °C; Buffer B (20 mM Tris-HCl pH 7.5, 150 mM NaCl); one-binding-site model
Details in all cases: both partners purified

The target in assay [1] is T1, CGH-1_(248–420) wild type (CGH-1 RecA2 domain) (C. elegans, UniProt Q95YF3 248-420).
T1 construct: Cloned into NdeI/XhoI of a modified pET-28a in which the thrombin cleavage site was removed; also called CGH-1_248-420^WT; source: E. coli Gold (DE3), purified (Ni-chelating resin, SEC Superdex 75)
T1 sequence (looked up): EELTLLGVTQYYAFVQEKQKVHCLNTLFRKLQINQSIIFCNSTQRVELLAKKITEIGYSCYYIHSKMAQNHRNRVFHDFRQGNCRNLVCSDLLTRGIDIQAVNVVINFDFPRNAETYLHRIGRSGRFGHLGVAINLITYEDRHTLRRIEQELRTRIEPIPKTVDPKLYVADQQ

The next assay concerns the target T2, CGH-1_(248–420) V262A (C. elegans, UniProt Q95YF3 248-420, V262A).
T2 construct: Mutant of m1 made with the MutanBEST kit; source: E. coli Gold (DE3), purified (Ni-chelating resin, SEC Superdex 75)
T2 sequence (looked up): T1 sequence (looked up) with V15A

Another assay addresses T3, CGH-1_(248–420) Y386A (C. elegans, UniProt Q95YF3 248-420, Y386A).
T3 construct: Mutant of m1 made with the MutanBEST kit; source: E. coli Gold (DE3), purified (Ni-chelating resin, SEC Superdex 75)
T3 sequence (looked up): T1 sequence (looked up) with Y139A

The target of another assay is T4, CGH-1_(248–420) F261A (C. elegans, UniProt Q95YF3 248-420, F261A).
T4 construct: Mutant of m1 made with the MutanBEST kit; source: E. coli Gold (DE3), purified (Ni-chelating resin, SEC Superdex 75)
T4 sequence (looked up): T1 sequence (looked up) with F14A

For another assay, the target named is T5, CGH-1_(248–420) K277E (C. elegans, UniProt Q95YF3 248-420, K277E).
T5 construct: Mutant of m1 made with the MutanBEST kit; source: E. coli Gold (DE3), purified (Ni-chelating resin, SEC Superdex 75)
T5 sequence (looked up): T1 sequence (looked up) with K30E

A further assay deals with T6, CGH-1_(248–420) E396A (C. elegans, UniProt Q95YF3 248-420, E396A).
T6 construct: Mutant of m1 made with the MutanBEST kit; source: E. coli Gold (DE3), purified (Ni-chelating resin, SEC Superdex 75)
T6 sequence (looked up): T1 sequence (looked up) with E149A

Assay [2] has as its target T7, CGH-1_(248–420) 4A mutant (His269, Cys270, Thr273 and Leu274 to Ala) (C. elegans, UniProt Q95YF3 248-420, His269 to Ala | Cys270 to Ala | Thr273 to Ala | Leu274 to Ala).
T7 construct: Mutant of m1 made with the MutanBEST kit; also called four-alanine mutant; source: E. coli Gold (DE3), purified (Ni-chelating resin, SEC Superdex 75)
T7 sequence (looked up): T1 sequence (looked up) with H22A, C23A, T26A, L27A

B1: PATR-1 peptide (CePATR-1_(30–67)) (peptide)
peptide: SDEDHNIFDDEFDAANDETFGGGLDNIGENAELENYAT
notes: PATR-1 (Pat1 ortholog), C. elegans, residues 30-67; Printed with free NH2 and COOH ends; also called PATR1_30-67^WT; CePATR-1 peptide; source: synthetic peptide (GL Biochem, Shanghai)
For B1, the Kd in assay [1] came to 2130 ± 380 nM; with CGH-1_(248–420) V262A, 4.94 ± 0.79 µM; with CGH-1_(248–420) Y386A, 4.19 ± 0.58 µM; with CGH-1_(248–420) F261A it was 6.62 ± 1.05 µM; with CGH-1_(248–420) K277E it was 8.29 ± 0.99 µM; in the assay with CGH-1_(248–420) E396A it was 2960 ± 340 nM. In addition, the equilibrium dissociation constant (Kd) in assay [2] was 2060 ± 270 nM. Moreover, the dH was -15.8 ± 0.62 kcal/mol in assay [1]; -17.3 ± 0.82 kcal/mol with CGH-1_(248–420) V262A; -14.2 ± 0.56 kcal/mol in the assay with CGH-1_(248–420) Y386A; -13 ± 0.7 kcal/mol with CGH-1_(248–420) F261A; -19.6 ± 0.95 kcal/mol with CGH-1_(248–420) K277E; -16.3 ± 0.47 kcal/mol in the assay with CGH-1_(248–420) E396A. In assay [2], this molecule came in with a dH of -15.4 ± 0.44 kcal/mol. Further, the “stoichiometry N” value in assay [1] amounted to 0.88; with CGH-1_(248–420) V262A, 0.84; in the assay with CGH-1_(248–420) Y386A, 0.85; with CGH-1_(248–420) F261A, 0.76; with CGH-1_(248–420) K277E, 1.07; with CGH-1_(248–420) E396A, 0.93. Further, the “stoichiometry N” value in assay [2] was 0.79.

What is called Kd is the concentration at which binding is half-saturated. Read a low Kd as a tighter complex. A word on the stoichiometry N: it is the number of molecules, sites or subunits per partner or assembly.
